Values joined by “and” are separate entries in the source; they are usually repeats but may differ in a detail not shown here. Identical values can stand only once.
Target: the molecule itself
Test: SEC; peptide at 43, 85 or 150 uM incubated in aqueous buffer at pH 7.0 or 8.0 at 37°C with 180 rpm agitation, aliquots filtered (0.22 um) and run on Superose 12 10/300 or Superdex 75 10/300 at room temperature, 0.75 mL/min, elution buffer as incubation buffer; oligomer size from calibration with globular protein standards

B1: Glucagon-like peptide 1, GLP-1(7–37) (peptide)
chain: HAEGTFTSDVSSYLEGQAAKEFIAWLVKGRG
notes: Glucagon-like peptide 1 (7-37), 31-residue peptide hormone cut from proglucagon; free C-terminus (-OH); 3355 Da; Forms non-covalent low-molecular-weight oligomers of varying size; written as the single chain
stoichiometry N: 3 and 5

Source: paper PMC10323027, “Glucagon-like peptide 1 aggregates into low-molecular-weight oligomers off-pathway to fibrillation” (Biophysical Journal, 2023)
